Data set [1] addresses T1, SNF full-length (NMR, SPR) (Drosophila melanogaster, UniProt P43332 1-216).
T1 sequence: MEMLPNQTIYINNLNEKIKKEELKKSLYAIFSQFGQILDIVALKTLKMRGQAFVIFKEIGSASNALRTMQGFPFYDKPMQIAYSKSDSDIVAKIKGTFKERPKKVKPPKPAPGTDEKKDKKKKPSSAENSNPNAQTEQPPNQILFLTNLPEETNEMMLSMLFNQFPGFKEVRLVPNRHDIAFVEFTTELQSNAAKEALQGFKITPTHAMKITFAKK
The data set can be described thus: NMR titration; protein:RNA 1:15; both RRMs perturbed; SPR 25 C: 10 mM HEPES pH 7.4, 150 mM NaCl, 3 mM EDTA, 0.05% P-20 (U1hpII); 50 mM PBS pH 7.0, 1 mM EDTA, 0.05% P-20 (poly(U)). EMSA: 4% native gel, protein ~1 uM, buffer by reference. Conditions: protein: recombinant; tags: pET-21d(+) vector.

Data set [2] concerns the target T2, SNF RRM1 (Drosophila melanogaster, UniProt P43332 1-104).
T2 sequence: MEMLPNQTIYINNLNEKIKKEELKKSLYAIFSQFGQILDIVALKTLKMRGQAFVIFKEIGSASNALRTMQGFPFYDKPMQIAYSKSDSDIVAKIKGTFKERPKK
The data set can be described thus: SPR; SPR 25 C: 10 mM HEPES pH 7.4, 150 mM NaCl, 3 mM EDTA, 0.05% P-20 (U1hpII); 50 mM PBS pH 7.0, 1 mM EDTA, 0.05% P-20 (poly(U)). EMSA: 4% native gel, protein ~1 uM, buffer by reference. Conditions: protein: recombinant; tags: pET-21d(+) vector; label: biotin; hairpin.

Data set [3] concerns the target T3, SNF RRM1 (residues 1-104) (Drosophila melanogaster (Fruit fly), UniProt P43332).
T3 chain: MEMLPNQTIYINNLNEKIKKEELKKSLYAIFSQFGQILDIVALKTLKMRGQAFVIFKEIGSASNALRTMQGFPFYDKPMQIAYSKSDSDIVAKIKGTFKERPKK
Put plainly: NMR 1H-15N HSQC comparison of full-length SNF with isolated RRMs, plus 15N relaxation; inferred in cis from full-length SNF versus isolated domains; separate RRM1 and RRM2 were not reported as mixed in trans.

In data set [4] the target is T1, SNF full-length (NMR, SPR). Put plainly: SPR; n = 1.06; SPR 25 C: 10 mM HEPES pH 7.4, 150 mM NaCl, 3 mM EDTA, 0.05% P-20 (U1hpII); 50 mM PBS pH 7.0, 1 mM EDTA, 0.05% P-20 (poly(U)). EMSA: 4% native gel, protein ~1 uM, buffer by reference. Conditions: protein: recombinant; tags: pET-21d(+) vector; label: biotin. On the technique in general: Surface plasmon resonance follows binding to a sensor surface in real time, without labels.

The target in data set [5] is T2, SNF RRM1. Put plainly: SPR; n = 1.20; SPR 25 C: 10 mM HEPES pH 7.4, 150 mM NaCl, 3 mM EDTA, 0.05% P-20 (U1hpII); 50 mM PBS pH 7.0, 1 mM EDTA, 0.05% P-20 (poly(U)). EMSA: 4% native gel, protein ~1 uM, buffer by reference. Conditions: protein: recombinant; tags: pET-21d(+) vector; label: biotin.

The values below come from paper PMC2731243, “Structure and Novel Functional Mechanism of Drosophila SNF in Sex-Lethal Splicing”.

B1: 2U-run (NMR) (ssRNA)
RNA: UUUUUUUUAUUUUUUUUU
Take B1: the binding result in data set [1] is given as “binds”.

B2: U1hpII (SPR) (structured_RNA)
RNA: GGCUUGGCCAUUGCACCUCGGCUGAGUU
modifications: 5' biotin
For the molecule B2, in the data set with SNF RRM1 [2], the Kd is around 0.0044 µM.

B3: SNF RRM2 (residues 134-216) (protein)
chain: AQTEQPPNQILFLTNLPEETNEMMLSMLFNQFPGFKEVRLVPNRHDIAFVEFTTELQSNAAKEALQGFKITPTHAMKITFAKK
For B3, the binding result in data set [3] is “no binding”.

B4: 2U-run poly(U) RNA (SPR) (ssRNA)
RNA: CCCCUCCCCUUUUUUUUUAUUUUUUUU
modifications: 5' biotin
Turning to B4, the values for the Kd (in data set [4]; with SNF RRM1 [5]) were around 0.3 µM and around 6 µM, respectively.

A word on the Kd: it is a measure of binding affinity in units of concentration.
